Results taken from the supplement of paper PMC7877785.
± gives the uncertainty stated by the source.

Assay: self-splicing fitness, log relative to wild type (ln ratio); higher = more splicing; Tetrahymena group I intron in knt gene, E. coli kanamycin selection, DiMSum; sequences stand for … in CUCUCU…GGAGGGAAAAGUUAUCAGGCAUGCACCUGGUAGCUAGUCUUUAAACCAAUAGAUUGCAUCGGUUUAAAAGGCAAGACCGUCAAAUUGCGGGAAAGGGGUCAACAGCCGUUCAGUACCAAGUCUCAGGGGAAACUUUGAGAUGGCCUUGCAAAGGGUAUGGUAAUAAGCUGACGGACAUGGUCCUAACCACGCAGCCAAGUCCUAAGUCAACAGAUCUUCUGUUGAUAUGGAUGCAGUUCACAGACUAAAUGUCGGUCGGGGAAGAUGUAUUCUUCUCAUAAGAUAUAGUCGGACCUCUCCUUAAUGGGAGCUAGCGGAUGAAGUGAUGCAACACUGGAGCCGCUGGGAACUAAUUUGUAUGCGAAAGUAUAUUGAUUAGUUUUGGAGUACUCGUGGUCG
Procedure, shortened: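 Colonies from six replicate transformations of E. coli BL21(DE3) were pooled and amplicon-sequenced on an Illumina HiSeq 2500. The library placed an intron with all eight P1ex-region nucleotides randomised inside the knt kanamycin-resistance gene on pET-22b(+), and cells grew overnight at 37°C or 30°C on LB agar with or without 25 μg/mL kanamycin (plus 100 μg/mL carbenicillin, 50 μM IPTG, 0.2% rhamnose). Fitness is the DiMSum error-weighted combination of wild-type-normalised replicate fold changes, kanamycin versus none.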

UUAGAGCAAUAUUACGUAAA
self-splicing fitness (ln) (30 °C): -2.69 ± 0.17
self-splicing fitness (ln) (37 °C): 0.396 ± 0.13

AUAAAGCAAUAUUACGACCC
self-splicing fitness (ln) (30 °C): 0.352 ± 0.21
self-splicing fitness (ln) (37 °C): 0.804 ± 0.26

AUGCAGCAAUAUUACGGGGC
self-splicing fitness (ln) (30 °C): -4.09 ± 0.23
self-splicing fitness (ln) (37 °C): -2.54 ± 0.21

GAUUAGCAAUAUUACGGUAC
self-splicing fitness (ln) (30 °C): -2.14 ± 0.37
self-splicing fitness (ln) (37 °C): -0.994 ± 0.22

UGACAGCAAUAUUACGCUUU
self-splicing fitness (ln) (30 °C): -3.43 ± 0.2
self-splicing fitness (ln) (37 °C): -2.54 ± 0.26

GGCCAGCAAUAUUACGGAUA
self-splicing fitness (ln) (30 °C): -1.41 ± 0.12
self-splicing fitness (ln) (37 °C): -1.02 ± 0.14

GUAAAGCAAUAUUACGUUCA
self-splicing fitness (ln) (30 °C): -0.419 ± 0.072
self-splicing fitness (ln) (37 °C): 0.177 ± 0.12

GCAUAGCAAUAUUACGGGAG
self-splicing fitness (ln) (30 °C): -2.96 ± 0.19
self-splicing fitness (ln) (37 °C): -0.949 ± 0.12

AGCUAGCAAUAUUACGUGGU
self-splicing fitness (ln) (30 °C): -2.52 ± 0.17
self-splicing fitness (ln) (37 °C): -2.18 ± 0.24

UGUGAGCAAUAUUACGACAA
self-splicing fitness (ln) (30 °C): -1.97 ± 0.14
self-splicing fitness (ln) (37 °C): -1.68 ± 0.14

AGCGAGCAAUAUUACGUCAA
self-splicing fitness (ln) (30 °C): -2.95 ± 0.48
self-splicing fitness (ln) (37 °C): -0.741 ± 0.22

ACGAAGCAAUAUUACGAGUA
self-splicing fitness (ln) (30 °C): -3.49 ± 0.21
self-splicing fitness (ln) (37 °C): -2.73 ± 0.17

ACCGAGCAAUAUUACGCUAU
self-splicing fitness (ln) (30 °C): -2.77 ± 0.14
self-splicing fitness (ln) (37 °C): -2.26 ± 0.14

GCCAAGCAAUAUUACGGAGC
self-splicing fitness (ln) (30 °C): -3.32 ± 0.1
self-splicing fitness (ln) (37 °C): -2.38 ± 0.12

UAGCAGCAAUAUUACGGGGC
self-splicing fitness (ln) (30 °C): -3.58 ± 0.21
self-splicing fitness (ln) (37 °C): -3.17 ± 0.27

GAUGAGCAAUAUUACGUUAA
self-splicing fitness (ln) (30 °C): -2.39 ± 0.32

UCGGAGCAAUAUUACGUUCA
self-splicing fitness (ln) (37 °C): -2.2 ± 0.47

ACUCAGCAAUAUUACGGCCA
self-splicing fitness (ln) (30 °C): -1.28 ± 0.13
self-splicing fitness (ln) (37 °C): -0.0774 ± 0.16

CAACAGCAAUAUUACGUAAG
self-splicing fitness (ln) (30 °C): -0.309 ± 0.044
self-splicing fitness (ln) (37 °C): 0.376 ± 0.055

AGUCAGCAAUAUUACGCGUA
self-splicing fitness (ln) (30 °C): -0.295 ± 0.067
self-splicing fitness (ln) (37 °C): 0.106 ± 0.07

GGUUAGCAAUAUUACGGGAG
self-splicing fitness (ln) (30 °C): -3.49 ± 0.24
self-splicing fitness (ln) (37 °C): -2.55 ± 0.25

UAGGAGCAAUAUUACGUUUA
self-splicing fitness (ln) (30 °C): -2.18 ± 0.27
self-splicing fitness (ln) (37 °C): -0.145 ± 0.17

GGUCAGCAAUAUUACGUACU
self-splicing fitness (ln) (30 °C): -1.84 ± 0.12
self-splicing fitness (ln) (37 °C): -0.914 ± 0.13

AAAAAGCAAUAUUACGAAUG
self-splicing fitness (ln) (30 °C): -1.48 ± 0.091
self-splicing fitness (ln) (37 °C): -0.947 ± 0.12

CUACAGCAAUAUUACGUGUA
self-splicing fitness (ln) (30 °C): -3.12 ± 0.14
self-splicing fitness (ln) (37 °C): -2.93 ± 0.16

CUUCAGCAAUAUUACGGUCG
self-splicing fitness (ln) (30 °C): -0.131 ± 0.062
self-splicing fitness (ln) (37 °C): -0.155 ± 0.093

UCAGAGCAAUAUUACGCGAC
self-splicing fitness (ln) (30 °C): -3.71 ± 0.42

AGAGAGCAAUAUUACGCUAG
self-splicing fitness (ln) (30 °C): -2.84 ± 0.28
self-splicing fitness (ln) (37 °C): -2.91 ± 0.38

GGUCAGCAAUAUUACGAAUU
self-splicing fitness (ln) (30 °C): 0.104 ± 0.078
self-splicing fitness (ln) (37 °C): 0.599 ± 0.091

GAGUAGCAAUAUUACGUCAU
self-splicing fitness (ln) (30 °C): -2.58 ± 0.13
self-splicing fitness (ln) (37 °C): -1.47 ± 0.13

ACUCAGCAAUAUUACGCGCC
self-splicing fitness (ln) (30 °C): -1.17 ± 0.16
self-splicing fitness (ln) (37 °C): -0.503 ± 0.17

CACGAGCAAUAUUACGCCGG
self-splicing fitness (ln) (30 °C): -3.41 ± 0.22
self-splicing fitness (ln) (37 °C): -2.6 ± 0.3

AAGUAGCAAUAUUACGAGAC
self-splicing fitness (ln) (30 °C): -2.6 ± 0.33

GCAAAGCAAUAUUACGUACU
self-splicing fitness (ln) (30 °C): -0.928 ± 0.067
self-splicing fitness (ln) (37 °C): 0.299 ± 0.095

CCUGAGCAAUAUUACGUAAC
self-splicing fitness (ln) (37 °C): -2.3 ± 0.35

GGCAAGCAAUAUUACGGUGA
self-splicing fitness (ln) (30 °C): -0.759 ± 0.071
self-splicing fitness (ln) (37 °C): -0.336 ± 0.077

CCGAAGCAAUAUUACGCCGG
self-splicing fitness (ln) (37 °C): -2.21 ± 0.46

AUUCAGCAAUAUUACGUUGG
self-splicing fitness (ln) (30 °C): -2.45 ± 0.12
self-splicing fitness (ln) (37 °C): -1.94 ± 0.13

ACUCAGCAAUAUUACGCCGC
self-splicing fitness (ln) (30 °C): -2.78 ± 0.28
self-splicing fitness (ln) (37 °C): -1.78 ± 0.43

UGUGAGCAAUAUUACGUAAA
self-splicing fitness (ln) (30 °C): -2.31 ± 0.15
self-splicing fitness (ln) (37 °C): -1.31 ± 0.21
